The data set is described as follows: soluble on expression in E. coli; label from the status in PepcDB or PDB records.
In the case of “MSLSKDEELLQNYCSILFTYKTIGISNLHLYYFRETEIKSLKQLINAEFAILQTCNRVEIYLYSDTNTLKEVNKIIQYLNNIHNEPIGNQARVLCGKDAAKHLFLVASGADSLSIGEYEILSQIRSTIDMFKKLGFSGKYLQIFFERAIKVGRKVREETSISKGKVGIYSLAIDEAKKRFNDFYDRRILVIGAGEMAQKITSMLHNEGAKDVTIMNRTIEKAKQLALKFGYNYEKLDLDKLGNFDVAFISIYHENLRLENKWNTLIVDITVPPLFTGNNVITLEELERISNLNFKAREEELAKINKLVEDGINELLYDYKKEIYTEFMSKIMKREGHHHHHH”, the “soluble on expression in E. coli” value is reported as “soluble”. Regarding “MDMTDMTTTGSATEAATAAASSTPLPTFGQSLTEQLTPILGDAETQQLASLIAHLPTIKGQTDEQSIALYVDTLTQLKEKNSVFSGAALSESASIWMRSLQRVSSNGKMDSAELATQMNNALASQFQTWFADQLTDKVDSSLPTQFVSQFQLGTESTQAQQIAKLSAEELKSATGDIASFVDDLARQMSSSVVRESASSFLRNAFAHLPSMNLAQLKASDFLLTEANFVTNVSTQLQNVFKQIGITLTKDVADELAKRITWTPGISKQQLSEVLSEMATQVKGQFTAAYGETAGTENLRKALDAIIKSSDSLTLSSLFANFAVSLIHTEIDAFYNDKAIADIQKTQISADQAELIKNNTERDIRFQFEKMLKGESTGASFIERYETLRKNL”, the “soluble on expression in E. coli” value was “not soluble”. Regarding “MLFVLILSHRAASYGAIMAALPYMQLYIADYLADTMHLSAEEHGAYLLLMFNYWQTGKPIPKNRLAKIARLTNERWADVEPSLQEFFCDNGEEWVHLRIEEDLASVREKLTKKSAAGKASVQARRSRKEADVQTKQERNLTGVQTDVEVVFEHDVNTKATNKDTDKDLKTDPPLNPPRGNRGVKKFDPLDITLPNWISVSLWREWVEFRQALRKPIRTEQGANGAIRELEKFRQQGFSPEQVIRHSIANEYQGLFAPKGVRPETLLRQVNTVSLPDSAIPPGFRG”, the “soluble on expression in E. coli” value was “not soluble”. In the case of “MGSDKIHHHHHHMGPLSGITILDLTSVLMGPYATQTLADMGADVVKVESPEGDIVRHIGPGRTPGMGGMFLNTNRGKRSIVIDLKQNDGREALLRLAARANALIYNVRPQAMARLGLSYEQVAAVNPGIVYLGAFGYGQDGPYAAKPAYDDLIQGAAGVPTLLAAAGDGTPRYVPITIADRIVGLMAVNAMLGALMHQQRTGEGQRIDVPMFESMASFVLVDHLGGLTYEPPLDHGGYARLLSRSRKPYRTSDGYLCVLIYNDKQWRSFFEAIDRTDFLAQPRFANHAARTRHIDEIYEEIGAIFLTRTTAEWRELLERADIPVMPMHSMESILDDPHLRAVGFFETVEHPVEGRVRQMKVPSTWSATQPQPGGPAPTLGGNGRDILTEAGFSSAEIERLGHSKAVHLPD”, the “soluble on expression in E. coli” value is on record as “not soluble”.

For “MGHHHHHHSHMASLAVSNWPKPMPLIPCLSWSTASGVFTTGVLSKPINWRELEKQYYTQTVYEEEIIHMLEYCGTDSFKMGQEFVKHFTSSADKLTNLNLVSRTLNLDISNQVVSQKPADCHNSSKTSVSATSEGLLLQDTSKMKRFNQTLSTNKSGYTSRNPQSYHLLSKEQSRNSLRKESLIFMKGVMDECTHVANFSVPVDPSLIIVVQAKEDAYIPRTGVRSLQEIWPGCEIRYLEGGHISAYLFKQGLFR”, the “soluble on expression in E. coli” value was “soluble”.

“MIDEYDDLAHDSSEGEFEPNTLTPEEKPPHNVDEDRIESTGVAAPMQGTEEPEKGDQKESDGASQVDQSVEITRPETSYYQTLESPSTKRQKLDQQGNGDQTRDFGTSMEL”: the “soluble on expression in E. coli” value is “soluble”.

In the case of “MGSDKIHHHHHHMRYTYRHIGILTISLIVASCSFSQKQADNNHDKDMNPNVKIVVLDPGHFHASLLQKNPLASVNDTIRVYAPEGAEVKQYLNDINSYNQRAENPTSWKEEIYIGGDYLSRMLSDRQGDVVVLAGNNQKKTNYILEAIKAGYNVLSDKPLAINKKDFDLLIQAYQLAKERKLLLYDLMTERYDILNIIEKALLNNPDLFGELQKGSLNDPSVSMESVHHFFKNVSGKPLIRPVWYYDTEQQGEGIADVTTHLIDLVNWQCFPNETIRYQSDVEVLKARHWPTRITLPEFSQSTQADTFPAFLNKYINNNVLEVLANGSLNYTVKGIHIGMKVIWNYTPPSDGGDTFTSLKKGSKATLKTIQDKESGFVKQLYIQRAADSDHSEFESQLQKAIKQLQATYPFLSVKKMNEGLYLIDIPQADRLGHEAHFSKVAEAFLGYLHDKNMPEWENENTISKYYITTTAVELAKKEK”, the “soluble on expression in E. coli” value is on record as “not soluble”. With “METHEKIRLMRELNKWSQEDMAEKLAMSAGGYAKIERGETQLNIPRLEQLAQIFKIDMWDLLKSGGGGMVFQINEGDSGGDIALYASGDVSMKIEFLKMELKHCKEMLEQKDKEIELLRKLTETV”, the “soluble on expression in E. coli” value is “not soluble”. For “MVLPGNCSTSAALCMQFLTQLASVAIDQAYQPPQQPAYNPHEKLFVSYRSVPPPGSSPSSAAVPIRFSSYSSVGSNIRGLNSPTLHPGSIEPPLTPGNYRLYSMRFCPYAQRVLIYLAKKNIPVEVVNVNPDRSPNWYLPKSPIGRVPALEINGKVVWESNVIVEYLDELFPTNTILPRDAYEKAHQKILVERLSPIMNALFEFYGSSNNPQAQRQNDMNVHSALRNSENLLRDTFYGGRQPGYADYLMWPFLERLQLLTMSPNSQFRYFPGLHYPKIGAYIARMQNQPEVLGFCKHDFFLKKTGEKIW”, the “soluble on expression in E. coli” value was “not soluble”.

Regarding “MNTVFSNIANAKITEKSLNAVWMDLFKSADEVLMATGYVSNDAVVELHKILELNDHIQKIDLLVGMHYLEGFSHLQYDSLCKLNDFLRHEKRGAVYVSPFVKFHGKMYSFKNYQKINGLIGSANLTCFWDSTERTYETMLHLNGKPAQILQADIQSTIHKLGKNIQEVERPSKFIEHNSHLENCLGVQKIAPEQIRQLFAQTSEYHFSIPAKTEEKSNLNVFFGEGRRDKRGFVKPRPWYEVELIVSKDITSQEGYPVLKSFTVITDDGWQFQCKTSGDYSKNFRSENDLKTLGKWIKGRLESHGCLQNNEKITHETLREYGNDHFELRSTDNPDVWLLSFKGKN”, the “soluble on expression in E. coli” value was “not soluble”. Then “STRERLLSALEDLEVLSRELIEMLAISRNQKLLQAGEENQVLELLIHRDGEFQELMKLALNQGKIHHEMQVLEKEVEKRDSDIQQLQKQLKEAEQILATAVYQAKEKLKSIEKARKGAISSEEIIKYAHRISASNAVCAPLTWVPGDPRRPYPTDLEMRSGLLG”, with “not soluble”; and “MNPAPERTVMQHVRPLPYEADFTGFLSNTVAPRWMEALRIQRMRTCFPHFDSGAPQHLCIITETTVRYRKPVRYSDAIVGKAWLQSARYSRWIIAFSFAFEFSGLPAFEGRQAGTFIDPLEHHHHHH”, with “not soluble”. “MKKRNSMKLASLTVLLAGTTLFTPGFTVKAESTQSISNSSKVHDQKNRNGWKQVMQETIKIGAPGVLAKTSNKGKISSYTAGVADLSTKKPVKSDYRFRIGSVTKTFTATTVLQLVGENRVQLDDSIEKWLPGLIQGNGYDGNQITIRQLLNHTSGIAEYLKSKDADIMNSKKTYTAEEIVKIGLALPSDFSPGKGWSYSNTGYVILGMLIEKITGNSYAEEIEKRIIEPLDLPNTFLPGNSPVIPGKNHARGYVKMEETGELKDITYYNPSLANAAGDMISNADDLNKFFSSLLGGKLLKERELKEMLTTVPIEGKGIGDGYGLGIYETKLPNGVSVWGHGGSIPGFMTFAGGVIGGKHTFAVNVNSLGPVDILTQFDKMMQVEFNK”: the “soluble on expression in E. coli” value is “not soluble”. In the case of “MGSDKIHHHHHHMPGICLCFQVHRPVILKRYTFFDIGRHHLYEDQEANRRILNQLADSCYLPANRLLLRLMEKSEGRFRVAFALSGAMIHLCEKYRQDIMEGFRRLADTGCVEFLNEADPHSLAFLFSPREFREQIEAHKKKIQELFGQNPTTFHCTDLIYSNELAGVAEEMGHSAFLAEGGQGLPGFQGPDFVYQPADCARLKLLLRNYHLSADIRLHFSDGSRNGHPFPAGWFAERILHSLENSGGQVVNLFLDYETSGKYLTPDRGNSEFLQALSAEMLGQPDFHFQLPAEIAQRYDPQARLDVTDSASGFDIHRNLTTVAGNAMQQDALRVLYDLEEAVRKRKDADCLAIWRMLQTSDYFNYMCTEGFADRVRRRDSGPYGSPYESYINYMNILEDFSRTLQS”, the “soluble on expression in E. coli” value is given as “not soluble”.

On to “MAVCSLVAKITYAEERQQNNYPIILVNGFAGWGREEMLGVKYWGGVHDIQEDLKRNGYTVHTAAVGPVSSNWDRACELYAQINGGTVDYGAAHAEKHGHKRFGRTYSGFAPNWSETNKIHLVGHSMGGQTIRTLVQLLKEGSYEEKNYVKNHPNTKISPLFEGEKSYVHSVTTLATPHNGTTLADGSLLLPFVKDLLITAASFGGNDNLSLYDFKLDQWGLKKNTGESFFQYSNRILNSSIWKNTKDISQWDLSTDGAKELNNWVKTQLNVYYLSYSGHASQAAPITGLHLPHITMNKVLMGNAFFLGSYARYEENRPLIDTTWWQNDGVVNTSSMIAPSSNATVNNNESLQIGKWNHIETKANWDHLDMVGLSVSDTLGFSSIQEFYRAIAEKLSRLPK”, for which the “soluble on expression in E. coli” value is “not soluble”. Then “IGQVNLQLRANFTYQTTDIIDKDEAANELWYKMDKGFQLNQSRGLIALGLFKDQDEIDRSPKQTSNRPILPGDIKYKDVNGDGVINDDDIVPLGYREVPGLQYGVGLSANWRNWNLSVLFQGTGKCDFFIGGNGPHAFRSERYGNILQAMVDGNRWIPKEISGTTATENPNADWPLLTYGNNDNNNRKSTFWLYERKYLRLRNVEVSYDFPQTWTRKFFVSNLRLGFVGQNLLTWAPFKMWDPEGTREDGSNYPINKTFSCYLQISF”, with “not soluble”; and “MAGWVAKRFWKEASVAEEPGGFAVLLDGRGVRTPAKRPLILPTCALAEAVASEWQAQEGEVRPETMPVTRSANSALDKVAPQFDEVTEMLAAYGGTDLLCYRATAPEALVARQARAWDPVLAWAAERFEAPLETTAGVMHQAQPEASLTRLAEHVRSFSPFQVAGFHDLVAISGSLILGLGVTEGHLLPEEAWELSRVDESWQIEQWGADEEAAEIEAFRRTAFLQAARFYALCGKLAAALEHHHHHH”, with “not soluble”.

“MGLKLDLTWFDKSTEDFKGEEYSKDFGDDGSVMESLGVPFKDNVNNGCFDVIAEWVPLLQPYFNHQIDISDNEYFVSFDYRDGDW”: the “soluble on expression in E. coli” value is recorded as “soluble”. Then “MKKIALTLAATSITLVSYSAFSAQDAEHVRLATTTSTYHSGLLDYLLPQFEKDTGYKVDVIAAGTGKALKMGENGDVDLVMTHAPKAEGTFVEKGYGVLPRKLMYNDFVIVGPKADPAKIKDDESVLDVFKEIANKNATFISRGDDSGTHKKEMGFWAQTKIEPNFGGYRSVGQGMGPTLNMASEMQGYTMSDRGTWLAYQNKLDLEILFQGDEKLFNPYQVILVNPERYPTINYQGAKAFSDWLVNPRGQELINGFRLNGKQLFVANAESK”, with “not soluble”; and “MSLKRKYEDHFKEQAVRLSFERGEISSVERELGINRTSLGKWRKKYEHLKLAPKDAVIIELNKKIKDSLLTLEILKNGSEFAAQGKVMTKRFIENNSSKYPIGKMCALLQISQRAYYKLKKKEISDKQSQIILLKEEVAAVYYEFKKTYGYRKIAKVLQCRGFKVGESQIRIYMNALGLRRRAKSRFTITTDSVHNHYIAQNILNREFTINQPAKAWVSDITYIAAEKGFLYLTIVLDLFDRKIIGWSLADSMSTKETTLPAWEMAVKNRNITQDLIFHSDRGVQYANKIFTETLDSYKFVRRSMSRKQNHNDNAVSESFFGNLKRELINGNKPLPREQMRVQVYQYIENWYNKKRRHSYLNYRTIEEFDKLHEGHHHHHH”, with “not soluble”.

As for “GEYKMMMARVAALPEDYQFVFKKIQNYMWNFSAGNGMDMLHIQYELIDLFEAGAAEGRQVLDITGEDVASFADELVANAKTYVSK”, the “soluble on expression in E. coli” value is recorded as “soluble”.

For the origin of these results see the DeepSol protein solubility set.
